± gives the standard deviation of the averaged measurements.
Test: total protein half-life in vivo (active degradation + dilution); higher = more stable protein
[1] = wild type E. coli NCM3722, growth: C-lim chemostat, doubling time 3 h
[2] = wild type E. coli NCM3722, growth: C-lim chemostat, doubling time 6 h
[3] = wild type E. coli NCM3722, growth: C-lim chemostat, doubling time 12 h
[4] = E. coli NCM3722 delta-clpP delta-lon delta-hslV, growth: N-lim chemostat, doubling time 6 h
[5] = E. coli NCM3722 delta-clpP, growth: N-lim chemostat, doubling time 6 h
[6] = E. coli NCM3722 delta-hslV, growth: N-lim chemostat, doubling time 6 h
[7] = E. coli NCM3722 delta-lon, growth: N-lim chemostat, doubling time 6 h
[8] = E. coli NCM3722 delta-smpB, growth: N-lim chemostat, doubling time 6 h
[9] = wild type E. coli NCM3722, growth: N-lim chemostat, doubling time 6 h
[10] = wild type E. coli NCM3722, growth: N-lim chemostat, doubling time 12 h
[11] = wild type E. coli NCM3722, growth: P-lim chemostat, doubling time 6 h
[12] = wild type E. coli NCM3722, growth: P-lim chemostat, doubling time 12 h

MKSKVLALLIPALLAAGAAHAAEVYNKDGNKLDLYGKVDGLHYFSDNSAKDGDQSYARLGFKGETQINDQLTGYGQWEYNIQANNTESSKNQSWTRLAFAGLKFADYGSFDYGRNYGVMYDIEGWTDMLPEFGGDSYTNADNFMTGRANGVATYRNTDFFGLVNGLNFAVQYQGNNEGASNGQEGTNNGRDVRHENGDGWGLSTTYDLGMGFSAGAAYTSSDRTNDQVNHTAAGGDKADAWTAGLKYDANNIYLATMYSETRNMTPFGDSDYAVANKTQNFEVTAQYQFDFGLRPAVSFLMSKGRDLHAAGGADNPAGVDDKDLVKYADIGATYYFNKNMSTYVDYKINLLDEDDSFYAANGISTDDIVALGLVYQF
total protein half-life in vivo [1]: 3.6 h
total protein half-life in vivo [2]: 6.9 h
total protein half-life in vivo [3]: 11.9 h

MATYLIGDVHGCYDELIALLHKVEFTPGKDTLWLTGDLVARGPGSLDVLRYVKSLGDSVRLVLGNHDLHLLAVFAGISRNKPKDRLTPLLEAPDADELLNWLRRQPLLQIDEEKKLVMAHAGITPQWDLQTAKECARDVEAVLSSDSYPFFLDAMYGDMPNNWSPELRGLGRLRFITNAFTRMRFCFPNGQLDMYSKESPEEAPAPLKPWFAIPGPVAEEYSIAFGHWASLEGKGTPEGIYALDTGCCWGGTLTCLRWEDKQYFVQPSNRHKDLGEAAAS
total protein half-life in vivo [4]: 4.24 ± 0.43 h
total protein half-life in vivo [5]: 4.196 ± 0.017 h
total protein half-life in vivo [6]: 3.52 ± 0.16 h
total protein half-life in vivo [7]: 3.56 ± 0.044 h
total protein half-life in vivo [8]: 3.68 ± 0.14 h
total protein half-life in vivo [1]: 2.71 ± 0.18 h
total protein half-life in vivo [2]: 4.718 ± 0.0074 h
total protein half-life in vivo [3]: 6.99 ± 0.28 h
total protein half-life in vivo [9]: 4.03 ± 0.15 h
total protein half-life in vivo [10]: 5.76 ± 0.16 h
total protein half-life in vivo [11]: 4.83 ± 0.51 h
total protein half-life in vivo [12]: 9.31 ± 0.91 h

MKMTKLATLFLTATLSLASGAALAADSGAQTNNGQANAAADAGQVAPDARENVAPNNVDNNGVNTGSGGTMLHSDGSSMNNDGMTKDEEHKNTMCKDGRCPDINKKVQTGDGINNDVDTKTDGTTQ [P0AAV6]
total protein half-life in vivo [4]: 4.05 h
total protein half-life in vivo [5]: 4.92 ± 2.1 h
total protein half-life in vivo [6]: 5.44 ± 0.35 h
total protein half-life in vivo [7]: 6.63 ± 0.59 h
total protein half-life in vivo [8]: 3.73 ± 1.6 h
total protein half-life in vivo [1]: 1.7 h
total protein half-life in vivo [2]: 5.24 h
total protein half-life in vivo [3]: 4.86 h
total protein half-life in vivo [9]: 4.78 h
total protein half-life in vivo [10]: 10.7 ± 3.5 h
total protein half-life in vivo [11]: 5.84 h
total protein half-life in vivo [12]: 10.2 ± 1.1 h

MKNRTLGSVFIVAGTTIGAGMLAMPLAAAGVGFSVTLILLIGLWALMCYTALLLLEVYQHVPADTGLGTLAKRYLGRYGQWLTGFSMMFLMYALTAAYISGAGELLASSISDWTGISMSATAGVLLFTFVAGGVVCVGTSLVDLFNRFLFSAKIIFLVVMLVLLLPHIHKVNLLTLPLQQGLALSAIPVIFTSFGFHGSVPSIVSYMDGNIRKLRWVFIIGSAIPLVAYIFWQVATLGSIDSTTFMGLLANHAGLNGLLQALREMVASPHVELAVHLFADLALATSFLGVALGLFDYLADLFQRSNTVGGRLQTGAITFLPPLAFALFYPRGFVMALGYAGVALAVLALIIPSLLTWQSRKHNPQAGYRVKGGRPALVVVFLCGIAVIGVQFLIAAGLLPEVG [P0AAD4]
total protein half-life in vivo [8]: 6.48 h

MNMTKGALILSLSFLLAACSSIPQNIKGNNQPDIQKSFVAVHNQPGLYVGQQARFGGKVINVINGKTDTLLEISVLPLDSYAKPDIEANYQGRLLARQSGFLDPVNYRNHFVTILGTIQGEQPGFINKVPYNFLEVNMQGIQVWHLREVVNTTYNLWDYGYGAFWPEPGWGAPYYTNAVSQVTPELVK
total protein half-life in vivo [5]: 6.72 ± 0.84 h
total protein half-life in vivo [6]: 6.43 ± 0.72 h
total protein half-life in vivo [8]: 6.62 ± 0.25 h
total protein half-life in vivo [3]: 14.6 h
total protein half-life in vivo [10]: 12.8 ± 0.086 h
total protein half-life in vivo [11]: 5.75 ± 0.59 h
total protein half-life in vivo [12]: 12.6 ± 1 h

MSVMFDPDTAIYPFPPKPTPLSIDEKAYYREKIKRLLKERNAVMVAHYYTDPEIQQLAEETGGCISDSLEMARFGAKHPASTLLVAGVRFMGETAKILSPEKTILMPTLQAECSLDLGCPVEEFNAFCDAHPDRTVVVYANTSAAVKARADWVVTSSIAVELIDHLDSLGEKIIWAPDKHLGRYVQKQTGGDILCWQGACIVHDEFKTQALTRLQEEYPDAAILVHPESPQAIVDMADAVGSTSQLIAAAKTLPHQRLIVATDRGIFYKMQQAVPDKELLEAPTAGEGATCRSCAHCPWMAMNGLQAIAEALEQEGSNHEVHVDERLRERALVPLNRMLDFAATLRG
total protein half-life in vivo [4]: 3.98 ± 0.16 h
total protein half-life in vivo [5]: 1.78 ± 0.25 h
total protein half-life in vivo [6]: 0.977 ± 0.24 h
total protein half-life in vivo [7]: 1.1 ± 0.098 h
total protein half-life in vivo [8]: 1.08 ± 0.25 h
total protein half-life in vivo [1]: 1.14 ± 0.026 h
total protein half-life in vivo [2]: 1.39 ± 0.083 h
total protein half-life in vivo [3]: 1.8 ± 0.44 h
total protein half-life in vivo [9]: 0.926 ± 0.058 h
total protein half-life in vivo [10]: 1.03 ± 0.097 h
total protein half-life in vivo [11]: 1.26 h
total protein half-life in vivo [12]: 2.48 ± 0.81 h

MATLTEDDVLEQLDAQDNLFSFMKTAHTILLQGIRQFLPSLFVDNDEEIVEYAVKPLLAQSGPLDDIDVALRLIYALGKMDKWLYADITHFSQFWHYLNEQDETPGFADDMTWDFISNVNSITRNAMLYDALKAMKFADFSVWSEARFSGMVKTALTLAVTTTLKELTP
total protein half-life in vivo [4]: 4.21 ± 0.82 h
total protein half-life in vivo [5]: 3.67 h
total protein half-life in vivo [6]: 2.45 h
total protein half-life in vivo [7]: 2.61 ± 0.36 h
total protein half-life in vivo [8]: 2.07 h
total protein half-life in vivo [1]: 2.02 h
total protein half-life in vivo [2]: > 8 h
total protein half-life in vivo [3]: 4.45 ± 0.14 h
total protein half-life in vivo [9]: 2.38 h
total protein half-life in vivo [10]: 4.18 h
total protein half-life in vivo [11]: 2.29 h
total protein half-life in vivo [12]: 3.96 ± 1 h

MTQANLSETLFKPRFKHPETSTLVRRFNHGAQPPVQSALDGKTIPHWYRMINRLMWIWRGIDPREILDVQARIVMSDAERTDDDLYDTVIGYRGGNWIYEWATQAMVWQQKACAEDDPQLSGRHWLHAATLYNIAAYPHLKGDDLAEQAQALSNRAYEEAAQRLPGTMRQMEFTVPGGAPITGFLHMPKGDGPFPTVLMCGGLDAMQTDYYSLYERYFAPRGIAMLTIDMPSVGFSSKWKLTQDSSLLHQHVLKALPNVPWVDHTRVAAFGFRFGANVAVRLAYLESPRLKAVACLGPVVHTLLSDFKCQQQVPEMYLDVLASRLGMHDASDEALRVELNRYSLKVQGLLGRRCPTPMLSGYWKNDPFSPEEDSRLITSSSADGKLLEIPFNPVYRNFDKGLQEITDWIEKRLC
total protein half-life in vivo [4]: 5.5 ± 0.92 h
total protein half-life in vivo [5]: 5.97 ± 1.6 h
total protein half-life in vivo [6]: 3.64 ± 0.2 h
total protein half-life in vivo [7]: 3.85 ± 0.3 h
total protein half-life in vivo [8]: 3.78 ± 0.053 h
total protein half-life in vivo [1]: 2.32 ± 0.07 h
total protein half-life in vivo [2]: 3.76 ± 0.11 h
total protein half-life in vivo [3]: 4.98 ± 0.59 h
total protein half-life in vivo [9]: 3.52 ± 0.098 h
total protein half-life in vivo [10]: 5.5 ± 0.077 h
total protein half-life in vivo [11]: 4.41 ± 0.33 h
total protein half-life in vivo [12]: 7.49 ± 0.46 h

Reference: the supplement of paper PMC11246515
